Reference: IntAct's records for PubMed 25416956

B1: Proton-coupled zinc antiporter SLC30A8 (Homo sapiens), Q8IWU4 (parent)
chain: MEFLERTYLVNDKAAKMYAFTLESVELQQKPVNKDQCPRERPEELESGGMYHCHSGSKPTEKGANEYAYAKWKLCSASAICFIFMIAEVVGGHIAGSLAVVTDAAHLLIDLTSFLLSLFSLWLSSKPPSKRLTFGWHRAEILGALLSILCIWVVTGVLVYLACERLLYPDYQIQATVMIIVSSCAVAANIVLTVVLHQRCLGHNHKEVQANASVRAAFVHALGDLFQSISVLISALIIYFKPEYKIADPICTFIFSILVLASTITILKDFSILLMEGVPKSLNYSGVKELILAVDGVLSVHSLHIWSLTMNQVILSAHVATAASRDSQVVRREIAKALSKSFTMHSLTIQMESPVDQDPDCLFCEDPCD
partner: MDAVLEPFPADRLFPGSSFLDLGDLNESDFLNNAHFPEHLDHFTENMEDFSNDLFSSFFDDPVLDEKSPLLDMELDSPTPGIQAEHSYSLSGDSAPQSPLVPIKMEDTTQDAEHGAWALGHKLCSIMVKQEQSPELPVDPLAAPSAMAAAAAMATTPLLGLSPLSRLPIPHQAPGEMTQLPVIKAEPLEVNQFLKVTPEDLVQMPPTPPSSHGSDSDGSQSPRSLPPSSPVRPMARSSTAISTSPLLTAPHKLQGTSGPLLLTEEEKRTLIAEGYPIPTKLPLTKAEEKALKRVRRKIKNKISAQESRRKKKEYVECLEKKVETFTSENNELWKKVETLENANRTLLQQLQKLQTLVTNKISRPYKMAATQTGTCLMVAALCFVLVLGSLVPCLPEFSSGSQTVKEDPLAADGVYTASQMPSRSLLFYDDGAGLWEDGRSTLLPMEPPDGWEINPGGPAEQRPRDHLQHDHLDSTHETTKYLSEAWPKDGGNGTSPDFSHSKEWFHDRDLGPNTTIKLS
B2: Inactive peptidyl-prolyl cis-trans isomerase FKBP6 (Homo sapiens), O75344 (parent)
chain: MGGSALNQGVLEGDDAPGQSLYERLSQRMLDISGDRGVLKDVIREGAGDLVAPDASVLVKYSGYLEHMDRPFDSNYFRKTPRLMKLGEDITLWGMELGLLSMRRGELARFLFKPNYAYGTLGCPPLIPPNTTVLFEIELLDFLDCAESDKFCALSAEQQDQFPLQKVLKVAATEREFGNYLFRQNRFYDAKVRYKRALLLLRRRSAPPEEQHLVEAAKLPVLLNLSFTYLKLDRPTIALCYGEQALIIDQKNAKALFRCGQACLLLTEYQKARDFLVRAQKEQPFNHDINNELKKLASCYRDYVDKEKEMWHRMFAPCGDGSTAGES
partner: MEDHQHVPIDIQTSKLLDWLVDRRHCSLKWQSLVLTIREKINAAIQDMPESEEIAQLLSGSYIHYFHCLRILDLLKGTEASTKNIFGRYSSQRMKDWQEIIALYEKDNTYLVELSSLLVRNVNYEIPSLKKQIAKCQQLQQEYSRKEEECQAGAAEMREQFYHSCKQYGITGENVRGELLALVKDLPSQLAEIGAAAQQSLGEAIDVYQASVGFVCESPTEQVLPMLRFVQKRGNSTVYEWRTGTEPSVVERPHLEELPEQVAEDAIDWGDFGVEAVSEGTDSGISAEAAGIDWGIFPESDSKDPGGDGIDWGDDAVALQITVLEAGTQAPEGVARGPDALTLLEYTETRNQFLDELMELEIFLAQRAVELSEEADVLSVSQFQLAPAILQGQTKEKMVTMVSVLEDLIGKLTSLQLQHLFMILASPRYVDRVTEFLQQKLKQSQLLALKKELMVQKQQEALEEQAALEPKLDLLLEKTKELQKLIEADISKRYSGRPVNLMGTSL
B3: Keratin, type II cytoskeletal 6A (Homo sapiens), P02538 (parent)
chain: MASTSTTIRSHSSSRRGFSANSARLPGVSRSGFSSVSVSRSRGSGGLGGACGGAGFGSRSLYGLGGSKRISIGGGSCAISGGYGSRAGGSYGFGGAGSGFGFGGGAGIGFGLGGGAGLAGGFGGPGFPVCPPGGIQEVTVNQSLLTPLNLQIDPTIQRVRAEEREQIKTLNNKFASFIDKVRFLEQQNKVLETKWTLLQEQGTKTVRQNLEPLFEQYINNLRRQLDSIVGERGRLDSELRGMQDLVEDFKNKYEDEINKRTAAENEFVTLKKDVDAAYMNKVELQAKADTLTDEINFLRALYDAELSQMQTHISDTSVVLSMDNNRNLDLDSIIAEVKAQYEEIAQRSRAEAESWYQTKYEELQVTAGRHGDDLRNTKQEIAEINRMIQRLRSEIDHVKKQCANLQAAIADAEQRGEMALKDAKNKLEGLEDALQKAKQDLARLLKEYQELMNVKLALDVEIATYRKLLEGEECRLNGEGVGQVNISVVQSTVSSGYGGASGVGSGLGLGGGSSYSYGSGLGVGGGFSSSSGRAIGGGLSSVGGGSSTIKYTTTSSSSRKSYKH
partner: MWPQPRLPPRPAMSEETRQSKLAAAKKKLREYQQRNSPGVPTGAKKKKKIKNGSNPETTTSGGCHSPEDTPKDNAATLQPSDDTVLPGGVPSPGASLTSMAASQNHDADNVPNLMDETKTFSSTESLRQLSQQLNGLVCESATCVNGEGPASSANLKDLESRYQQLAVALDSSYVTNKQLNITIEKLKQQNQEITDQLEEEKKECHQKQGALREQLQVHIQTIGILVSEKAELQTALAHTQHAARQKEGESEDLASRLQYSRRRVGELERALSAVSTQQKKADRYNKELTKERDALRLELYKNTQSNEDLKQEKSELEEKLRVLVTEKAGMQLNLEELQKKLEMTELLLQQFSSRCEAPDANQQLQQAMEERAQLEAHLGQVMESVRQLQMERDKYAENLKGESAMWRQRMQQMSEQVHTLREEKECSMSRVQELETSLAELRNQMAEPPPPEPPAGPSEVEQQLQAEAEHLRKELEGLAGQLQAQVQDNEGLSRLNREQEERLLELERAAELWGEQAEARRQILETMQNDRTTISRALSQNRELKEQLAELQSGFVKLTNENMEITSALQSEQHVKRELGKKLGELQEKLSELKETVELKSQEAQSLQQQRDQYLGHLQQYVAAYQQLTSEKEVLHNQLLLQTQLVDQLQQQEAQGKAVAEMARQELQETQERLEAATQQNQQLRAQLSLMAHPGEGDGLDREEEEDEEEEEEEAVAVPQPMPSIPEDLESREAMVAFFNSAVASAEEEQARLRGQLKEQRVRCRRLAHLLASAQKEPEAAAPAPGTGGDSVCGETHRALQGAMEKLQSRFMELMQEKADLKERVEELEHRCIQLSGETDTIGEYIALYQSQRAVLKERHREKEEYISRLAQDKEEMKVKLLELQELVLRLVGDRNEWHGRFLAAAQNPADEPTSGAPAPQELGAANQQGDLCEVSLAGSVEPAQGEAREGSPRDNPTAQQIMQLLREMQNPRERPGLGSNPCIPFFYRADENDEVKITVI
B4: Keratin, type II cytoskeletal 2 epidermal (Homo sapiens), P35908 (parent)
chain: MSCQISCKSRGRGGGGGGFRGFSSGSAVVSGGSRRSTSSFSCLSRHGGGGGGFGGGGFGSRSLVGLGGTKSISISVAGGGGGFGAAGGFGGRGGGFGGGSSFGGGSGFSGGGFGGGGFGGGRFGGFGGPGGVGGLGGPGGFGPGGYPGGIHEVSVNQSLLQPLNVKVDPEIQNVKAQEREQIKTLNNKFASFIDKVRFLEQQNQVLQTKWELLQQMNVGTRPINLEPIFQGYIDSLKRYLDGLTAERTSQNSELNNMQDLVEDYKKKYEDEINKRTAAENDFVTLKKDVDNAYMIKVELQSKVDLLNQEIEFLKVLYDAEISQIHQSVTDTNVILSMDNSRNLDLDSIIAEVKAQYEEIAQRSKEEAEALYHSKYEELQVTVGRHGDSLKEIKIEISELNRVIQRLQGEIAHVKKQCKNVQDAIADAEQRGEHALKDARNKLNDLEEALQQAKEDLARLLRDYQELMNVKLALDVEIATYRKLLEGEECRMSGDLSSNVTVSVTSSTISSNVASKAAFGGSGGRGSSSGGGYSSGSSSYGSGGRQSGSRGGSGGGGSISGGGYGSGGGSGGRYGSGGGSKGGSISGGGYGSGGGKHSSGGGSRGGSSSGGGYGSGGGGSSSVKGSSGEAFGSSVTFSFR
partner: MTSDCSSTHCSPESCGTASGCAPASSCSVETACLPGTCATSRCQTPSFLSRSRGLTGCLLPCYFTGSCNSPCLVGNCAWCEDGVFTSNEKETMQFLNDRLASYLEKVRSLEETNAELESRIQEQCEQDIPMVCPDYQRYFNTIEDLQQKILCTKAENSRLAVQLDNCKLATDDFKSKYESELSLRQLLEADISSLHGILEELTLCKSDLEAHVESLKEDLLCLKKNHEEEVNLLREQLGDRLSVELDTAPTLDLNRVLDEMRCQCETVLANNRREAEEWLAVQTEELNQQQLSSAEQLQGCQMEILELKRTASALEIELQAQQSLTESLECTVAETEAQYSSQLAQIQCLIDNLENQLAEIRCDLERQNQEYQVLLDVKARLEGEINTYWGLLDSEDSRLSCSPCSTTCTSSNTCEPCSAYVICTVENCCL
B5: TERF1-interacting nuclear factor 2 (Homo sapiens), Q9BSI4 (parent)
chain: MATPLVAGPAALRFAAAASWQVVRGRCVEHFPRVLEFLRSLRAVAPGLVRYRHHERLCMGLKAKVVVELILQGRPWAQVLKALNHHFPESGPIVRDPKATKQDLRKILEAQETFYQQVKQLSEAPVDLASKLQELEQEYGEPFLAAMEKLLFEYLCQLEKALPTPQAQQLQDVLSWMQPGVSITSSLAWRQYGVDMGWLLPECSVTDSVNLAEPMEQNPPQQQRLALHNPLPKAKPGTHLPQGPSSRTHPEPLAGRHFNLAPLGRRRVQSQWASTRGGHKERPTVMLFPFRNLGSPTQVISKPESKEEHAIYTADLAMGTRAASTGKSKSPCQTLGGRALKENPVDLPATEQKENCLDCYMDPLRLSLLPPRARKPVCPPSLCSSVITIGDLVLDSDEEENGQGEGKESLENYQKTKFDTLIPTLCEYLPPSGHGAIPVSSCDCRDSSRPL
B6: Plakophilin-2 (Homo sapiens), Q99959 (parent)
chain: MAAPGAPAEYGYIRTVLGQQILGQLDSSSLALPSEAKLKLAGSSGRGGQTVKSLRIQEQVQQTLARKGRSSVGNGNLHRTSSVPEYVYNLHLVENDFVGGRSPVPKTYDMLKAGTTATYEGRWGRGTAQYSSQKSVEERSLRHPLRRLEISPDSSPERAHYTHSDYQYSQRSQAGHTLHHQESRRAALLVPPRYARSEIVGVSRAGTTSRQRHFDTYHRQYQHGSVSDTVFDSIPANPALLTYPRPGTSRSMGNLLEKENYLTAGLTVGQVRPLVPLQPVTQNRASRSSWHQSSFHSTRTLREAGPSVAVDSSGRRAHLTVGQAAAGGSGNLLTERSTFTDSQLGNADMEMTLERAVSMLEADHMLPSRISAAATFIQHECFQKSEARKRVNQLRGILKLLQLLKVQNEDVQRAVCGALRNLVFEDNDNKLEVAELNGVPRLLQVLKQTRDLETKKQITDHTVNLRSRNGWPGAVAHACNPSTLGGQGGRITRSGVRDQPDQHGLLWNLSSNDKLKNLMITEALLTLTENIIIPFSGWPEGDYPKANGLLDFDIFYNVTGCLRNMSSAGADGRKAMRRCDGLIDSLVHYVRGTIADYQPDDKATENCVCILHNLSYQLEAELPEKYSQNIYIQNRNIQTDNNKSIGCFGSRSRKVKEQYQDVPMPEEKSNPKGVEWLWHSIVIRMYLSLIAKSVRNYTQEASLGALQNLTAGSGPMPTSVAQTVVQKESGLQHTRKMLHVGDPSVKKTAISLLRNLSRNLSLQNEIAKETLPDLVSIIPDTVPSTDLLIETTASACYTLNNIIQNSYQNARDLLNTGGIQKIMAISAGDAYASNKASKAASVLLYSLWAHTELHHAYKKAQFKKTDFVNSRTAKAYHSLKD
partner: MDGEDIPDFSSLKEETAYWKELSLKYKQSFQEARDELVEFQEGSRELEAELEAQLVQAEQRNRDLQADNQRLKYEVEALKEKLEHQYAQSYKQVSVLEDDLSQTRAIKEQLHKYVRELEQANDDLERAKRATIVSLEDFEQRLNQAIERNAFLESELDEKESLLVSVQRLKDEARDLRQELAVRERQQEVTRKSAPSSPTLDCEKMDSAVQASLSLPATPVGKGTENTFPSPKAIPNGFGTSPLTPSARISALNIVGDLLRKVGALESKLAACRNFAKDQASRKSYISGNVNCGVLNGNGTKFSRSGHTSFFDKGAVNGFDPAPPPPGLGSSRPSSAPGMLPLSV
B7: Keratin, type II cytoskeletal 6A (Homo sapiens), P02538 (parent)
chain: B3 chain
partner: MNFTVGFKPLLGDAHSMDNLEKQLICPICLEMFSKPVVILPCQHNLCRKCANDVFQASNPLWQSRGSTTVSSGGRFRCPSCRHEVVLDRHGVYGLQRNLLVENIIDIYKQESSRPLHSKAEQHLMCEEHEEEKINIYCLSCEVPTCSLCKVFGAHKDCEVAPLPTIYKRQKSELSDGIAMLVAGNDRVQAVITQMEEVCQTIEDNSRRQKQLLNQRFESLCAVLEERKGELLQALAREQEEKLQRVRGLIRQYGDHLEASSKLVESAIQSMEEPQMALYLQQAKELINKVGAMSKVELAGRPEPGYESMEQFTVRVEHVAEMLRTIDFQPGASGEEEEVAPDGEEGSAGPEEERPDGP

Variants of: B1
Conditions: with cr3l1_human CREB3L1, Q96BA8
E276W was tested, and the “effect of a mutation on the interaction” value was “disrupting interaction”.

Variants of: B2
Conditions: with ck5p3_human CDK5RAP3, Q96JB5
For F72L, the “effect of a mutation on the interaction” value was “disrupting interaction”.

Variants of: B3
Conditions: with goga2_human GOLGA2, Q08379
In the case of N171K, the “effect of a mutation on the interaction” value is reported as “disrupting interaction”.

Variants of: B4
Conditions: with KRT40, Q6A162
In the case of I477N, the “effect of a mutation on the interaction” value is reported as “disrupting interaction”.

Variants of: B4
Conditions: with KRT40, Q6A162
Remark: another data set of the same source
L484P was tested, and the “effect of a mutation on the interaction” value was “disrupting interaction”.

Variants of: B5
Conditions: with acd_human ACD
In the case of P236S, the “effect of a mutation on the interaction” value is reported as “disrupting interaction”.

Variants of: B6
Conditions: with ndel1_human NDEL1, Q9GZM8
With S644P the “effect of a mutation on the interaction” value was “disrupting interaction”.

Variants of: B6
Conditions: with ndel1_human NDEL1, Q9GZM8
Remark: another data set of the same source
For S140F, the “effect of a mutation on the interaction” value was “disrupting interaction”.

Variants of: B7
Conditions: with tri54_human TRIM54, Q9BYV2
A463P was tested, and the “effect of a mutation on the interaction” value was “disrupting interaction”.
